Two molecules from patent publication US20160326532A1 (MAYO FOUNDATION FOR MEDICAL EDUCATION AND RESEARCH, published 2016) can be followed below.

One test deals with T1, HIF-1α, endogenous (UniProt Q16665 1-826).
T1 construct: also called HIF-1alpha; hypoxia-inducible factor 1 alpha
Put plainly: co-immunoprecipitation of endogenous proteins from HEK 293T cell extracts (FIG. 8A). As to the method: To study endogenous WSB1/pVHL binding, cells were treated with or without 10 μM MG 132 (Sigma) for 2 hours. Cells were lysed by sonication in NETN buffer (20 mM Tris-HCl, pH 8.0, 100 mM NaCl, 1 mM EDTA, 0.5% Nonidet P-40) containing 50 mM b-glycerophosphate, 10 mM NaF, and […] each of pepstatin A and aprotinin, freshly supplemented with protease inhibitor cocktail (Roche). Prior to immunoprecipitation, protein A-bound Agarose beads were incubated overnight with pVHL antibody (Cell Signaling, #2738), WSB1 antibody (Abcam, ab68953; Sigma, HPA003293; Proteintech, 1166-1-AP), or HIF-1α antibody (Abcam, ab51608) in PBS with 5% BSA at 4° C. ab68953 was used for most experiments (HPA003293 for IHC). Extracts were added before immunoprecipitation with protein-A agarose at 4° C. for 4 hours. After three washings in binding buffer, co-purified proteins were analyzed by Western blotting.

The next test deals with T2, HA-tagged HIF-1α (UniProt Q16665 1-826).
T2 construct: Plasmid from Addgene; also called exogenous HIF-1α; not shown: HA tag
The test is described as follows: co-immunoprecipitation of exogenous proteins from HEK 293T cell extracts (FIG. 9A).

T1 sequence (Q16665 whole entry): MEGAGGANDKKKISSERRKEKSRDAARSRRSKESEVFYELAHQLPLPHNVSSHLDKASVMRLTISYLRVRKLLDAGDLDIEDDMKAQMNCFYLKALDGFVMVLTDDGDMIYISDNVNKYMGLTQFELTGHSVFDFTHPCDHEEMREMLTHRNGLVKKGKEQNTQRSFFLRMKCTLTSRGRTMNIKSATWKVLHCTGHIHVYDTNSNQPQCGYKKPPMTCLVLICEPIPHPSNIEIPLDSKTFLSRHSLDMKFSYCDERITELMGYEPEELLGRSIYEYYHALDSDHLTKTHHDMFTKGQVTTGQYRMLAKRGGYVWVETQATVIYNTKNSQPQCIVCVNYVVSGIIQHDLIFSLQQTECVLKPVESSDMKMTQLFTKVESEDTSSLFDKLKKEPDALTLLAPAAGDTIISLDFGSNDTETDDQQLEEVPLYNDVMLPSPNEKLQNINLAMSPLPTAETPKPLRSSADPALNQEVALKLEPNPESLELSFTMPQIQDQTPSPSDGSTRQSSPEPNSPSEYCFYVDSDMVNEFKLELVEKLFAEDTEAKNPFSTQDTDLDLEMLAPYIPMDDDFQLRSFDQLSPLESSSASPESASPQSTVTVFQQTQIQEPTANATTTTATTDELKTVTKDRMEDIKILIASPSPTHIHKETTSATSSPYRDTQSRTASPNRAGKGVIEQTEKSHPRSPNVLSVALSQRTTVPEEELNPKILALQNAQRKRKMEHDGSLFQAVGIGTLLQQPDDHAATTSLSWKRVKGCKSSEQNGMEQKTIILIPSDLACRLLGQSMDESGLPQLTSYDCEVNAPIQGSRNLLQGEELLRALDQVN
T2 sequence (Q16665 whole entry): as above

B1: WD repeat and SOCS box-containing protein 1 (WSB1), endogenous (enzyme)
chain: MASFPPRVNEKEIVRLRTIGELLAPAAPFDKKCGRENWTVAFAPDGSYFAWSQGHRTVKLVPWSQCLQNFLLHGTKNVTNSSSLRLPRQNSDGGQKNKPREHIIDCGDIVWSLAFGSSVPEKQSRCVNIEWHRFRFGQDQLLLATGLNNGRIKIWDVYTGKLLLNLVDHTEVVRDLTFAPDGSLILVSASRDKTLRVWDLKDDGNMMKVLRGHQNWVYSCAFSPDSSMLCSVGASKAVFLWNMDKYTMIRKLEGHHHDVVACDFSPDGALLATASYDTRVYIWDPHNGDILMEFGHLFPPPTPIFAGGANDRWVRSVSFSHDGLHVASLADDKMVRFWRIDEDYPVQVAPLSNGLCCAFSTDGSVLAAGTHDGSVYFWATPRQVPSLQHLCRMSIRRVMPTQEVQELPIPSKLLEFLSYRI
notes: also called WBS1
For B1, in the test with HIF-1α, endogenous, the binding result is “no binding”.

B2: Myc-tagged WSB1 (WT) (enzyme)
chain: B1 chain
notes: Plasmid obtained from Dr. Cheol Yong Choi; also called Myc-WSB1; WSB1-Myc; not shown: Myc tag
For the molecule B2, in the test with HA-tagged HIF-1α, the binding result is reported as “no binding”.
